For orientation: Km means the substrate concentration at which the rate is half of its maximum. For orientation: kcat means the maximal rate divided by the concentration of active sites. What is called kcat/Km is the turnover number divided by the Michaelis constant.

We go through one protein from article PMC4576209, “Biochemical characterization of FIKK8 – A unique protein kinase from the malaria parasite Plasmodium falciparum and other apicomplexans” (Molecular and Biochemical Parasitology, 2015).

Substrate in the data set: Nc1ncnc2c1ncn2[C@@H]1O[C@H](COP(=O)(O)OP(=O)(O)OP(=O)(O)O)[C@@H](O)[C@H]1O
Put plainly: LDH-PK coupled kinase assay. In kind it is biochemical, Cryptosporidium parvum. The following applies: peptide substrate; MgCl2 stated only for autophosphorylation.

B1: CpFIKKd (Cryptosporidium parvum Iowa II) (protein)
chain: GKNDKVCYTWKEAKQLISKLKSSTKLYKFNGVPFSDWAHEKIPTLGASPTSCRVQEMFKSRIYLEKNNEVYATLFIKKIPRNIWSKQWEMHEIWDGDYVTDGEDFVMEAAALAFLQNHSVGIAPRLYAILEHCEDNCNDINSNKESKIQYRNIANRNACDYLLSKDTTHIILVSEHYGEDLLDYLDKCEKKNRNLTDKEKKELQYKLALALNNLHSKGLCHLDFTPENILIGPNGINICDFAKSTPIITKNPRHTHYSRKSPKNHLSENFNSNNTSFNFINPPPEAYCEFESCEPTVGKGAYMPPECWKIFWRLEENKIQFPLEELMDIDTYNRRSNYSYFNEFSRIHNKSPIKCQDRSMFYFNTRIADIYMLGIIMFWIWSDGGIWKYSDTRQDHRYQNLVFSDINFDVFRECRGWNKQLKSLLKKMLEPDPNKRITMSEILSDPWWKCPLDE
notes: kinase domain plus N-terminal extension (38 or more residues); E. coli
As to B1, the Km turned out to be 48.0 ± 0.9 µM, the catalytic constant (kcat) was 1.3 ± 0.0083 s⁻¹ and the kcat/Km is 26700 M⁻¹ s⁻¹.
